{"source": "patent US20160319321", "proteins": {"B1": {"name": "bovine Enterokinase light chain variant (C112A, L134K, I135K) (protein)", "chain": "IVGGSDSREGAWPWVVALYFDDQQVCGASLVSRDWLVSAAHCVYGRNMEPSKWKAVLGLHMASNLTSPQIETRLIDQIVINPHYNKRRKNNDIAMMHLEMKVNYTDYIQPIALPEENQVFPPGRICSIAGWGAKKYQGSTADVLQEADVPLLSNEKCQQQMPEYNITENMVCAGYEAGGVDSCQGDSGGPLMCQENNRWLLAGVTSFGYQCALPNRPGVYARVPRFTEWIQSFLH"}}, "key": {"[1]": {"target": "T1, Lys(Dnp)-SDEGDR-HAEGT-Lys(Abz)amide", "T1 chain": "KSDEGDRHAEGTK"}, "[2]": {"target": "T2, DVKPGQPLADEGDR-[Arg34]GLP-1(9-37)", "T2 chain": "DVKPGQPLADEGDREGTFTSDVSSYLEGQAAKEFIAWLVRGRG"}, "[3]": {"target": "T3, Lys(Dnp)-DGGDR-HGEGT-Lys(Abz)amide", "T3 chain": "KDGGDRHGEGTK"}, "[4]": {"target": "T4, Lys(Dnp)-ELGDR-HAEGT-Lys(Abz)amide", "T4 chain": "KELGDRHAEGTK"}, "[5]": {"target": "T5, Lys(Dnp)-NEDGDR-HAEGT-Lys(Abz)amide (not fully specified)", "T5 chain": "KNEDGDRHAEGTK"}, "[6]": {"target": "T6, Lys(Dnp)-DDGDR-HGEGT-Lys(Abz)amide", "T6 chain": "KDDGDRHGEGTK"}, "[7]": {"target": "T7, Lys(Dnp)-DAGDR-HAEGT-Lys(Abz)amide", "T7 chain": "KDAGDRHAEGTK"}, "[8]": {"target": "T8, Lys(Dnp)-DLGDR-HAEGT-Lys(Abz)amide", "T8 chain": "KDLGDRHAEGTK"}, "[9]": {"target": "T9, Lys(Dnp)-DYGDR-HAEGT-Lys(Abz)amide", "T9 chain": "KDYGDRHAEGTK"}, "[10]": {"target": "T10, Lys(Dnp)-EDGDR-HGEGT-Lys(Abz)amide", "T10 chain": "KEDGDRHGEGTK"}, "[11]": {"target": "T11, Lys(Dnp)-EAGDR-EGTFT-Lys(Abz)amide", "T11 chain": "KEAGDREGTFTK"}, "[12]": {"target": "T12, Lys(Dnp)-DWGDR-HGEGT-Lys(Abz)amide", "T12 chain": "KDWGDRHGEGTK"}, "[13]": {"target": "T13, Lys(Dnp)-VEGDR-HAEGT-Lys(Abz)amide", "T13 chain": "KVEGDRHAEGTK"}, "[14]": {"target": "T14, Lys(Dnp)-VDEGDR-HAEGT-Lys(Abz)amide", "T14 chain": "KVDEGDRHAEGTK"}, "[15]": {"target": "T15, Lys(Dnp)-EHGDR-EGTFT-Lys(Abz)amide", "T15 chain": "KEHGDREGTFTK"}, "[16]": {"target": "T16, Lys(Dnp)-EAGDR-HAEGT-Lys(Abz)amide", "T16 chain": "KEAGDRHAEGTK"}, "[17]": {"target": "T17, Lys(Dnp)-DSGDR-EGTFT-Lys(Abz)amide", "T17 chain": "KDSGDREGTFTK"}, "[18]": {"target": "T18, Lys(Dnp)-SGGDRHAEGT-Lys(Abz)amide", "T18 chain": "KSGGDRHAEGTK"}, "[19]": {"target": "T19, Lys(Dnp)-EFGDR-HAEGT-Lys(Abz)amide", "T19 chain": "KEFGDRHAEGTK"}, "[20]": {"target": "T20, Lys(Dnp)-EEGDR-EGTFT-Lys(Abz)amide", "T20 chain": "KEEGDREGTFTK"}, "[21]": {"target": "T21, DVKPEQPLYDDDDK-[Arg34]GLP-1(9-37)", "T21 chain": "T2 chain with G5E, A9Y, E11D, G12D, R14K"}, "[22]": {"target": "T22, DVKPGQPLYDEGDR-[Arg34]GLP-1(9-37)", "T22 chain": "T2 chain with A9Y"}, "[23]": {"target": "T23, Lys(Dnp)-ESGDR-HAEGT-Lys(Abz)amide", "T23 chain": "KESGDRHAEGTK"}, "[24]": {"target": "T24, Lys(Dnp)-DSGDR-HAEGT-Lys(Abz)amide", "T24 chain": "KDSGDRHAEGTK"}, "[25]": {"target": "T25, Lys(Dnp)-EYGDR-HAEGT-Lys(Abz)amide", "T25 chain": "KEYGDRHAEGTK"}, "[26]": {"target": "T26, Lys(Dnp)-DHGDR-EGTFT-Lys(Abz)amide", "T26 chain": "KDHGDREGTFTK"}, "[27]": {"target": "T27, Lys(Dnp)-DDGDR-HSQGT-Lys(Abz)amide", "T27 chain": "KDDGDRHSQGTK"}, "[28]": {"target": "T28, Lys(Dnp)-EGGDR-HGEGT-Lys(Abz)amide", "T28 chain": "KEGGDRHGEGTK"}, "[29]": {"target": "T29, Lys(Dnp)-DQGDR-HGEGT-Lys(Abz)amide", "T29 chain": "KDQGDRHGEGTK"}, "[30]": {"target": "T30, Lys(Dnp)-EAGDR-HGEGT-Lys(Abz)amide", "T30 chain": "KEAGDRHGEGTK"}, "[31]": {"target": "T31, Lys(Dnp)-DQGDR-HAEGT-Lys(Abz)amide", "T31 chain": "KDQGDRHAEGTK"}, "[32]": {"target": "T32, Lys(Dnp)-DEGDR-QGTFT-Lys(Abz)amide", "T32 chain": "KDEGDRQGTFTK"}, "[33]": {"target": "T33, Lys(Dnp)-DGGDR-EGTFT-Lys(Abz)amide", "T33 chain": "KDGGDREGTFTK"}, "[34]": {"target": "T34, Lys(Dnp)-IDEGDR-HAEGT-Lys(Abz)amide", "T34 chain": "KIDEGDRHAEGTK"}, "[35]": {"target": "T35, Lys(Dnp)-DEGDR-HGTFT-Lys(Abz)amide", "T35 chain": "KDEGDRHGTFTK"}, "[36]": {"target": "T36, DVKPGQPLEDEGDR-[Arg34]GLP-1(9-37)", "T36 chain": "T2 chain with A9E"}, "[37]": {"target": "T37, Lys(Dnp)-EHGDR-HAEGT-Lys(Abz)amide", "T37 chain": "KEHGDRHAEGTK"}, "[38]": {"target": "T38, Lys(Dnp)-EQGDR-HAEGT-Lys(Abz)amide", "T38 chain": "KEQGDRHAEGTK"}, "[39]": {"target": "T39, Lys(Dnp)-ESGDR-EGTFT-Lys(Abz)amide", "T39 chain": "KESGDREGTFTK"}, "[40]": {"target": "T40, Lys(Dnp)-QEGDR-HGEGT-Lys(Abz)amide", "T40 chain": "KQEGDRHGEGTK"}, "[41]": {"target": "T41, Lys(Dnp)-INDDRHAEGT-Lys(Abz)amide", "T41 chain": "XINDDRHAEGTX"}, "[42]": {"target": "T42, Lys(Dnp)-ETGDR-HAEGT-Lys(Abz)amide", "T42 chain": "KETGDRHAEGTK"}}, "note": "Residue numbers refer to the chain shown, from its start. Names and notes keep the numbering of the source. Values joined by “and” are separate entries in the source; they are usually repeats but may differ in a detail not shown here. Identical values can stand only once.", "data": [{"protein": "B1", "values": [{"measurement": "Activity (%)", "setting": "[1]", "result": 222, "unit": "%"}, {"measurement": "Activity (%)", "setting": "[2]", "result": 476, "unit": "%"}, {"measurement": "Activity (%)", "setting": "[3]", "result": 301, "unit": "%"}, {"measurement": "Activity (%)", "setting": "[4]", "result": 659, "unit": "%"}, {"measurement": "Activity (%)", "setting": "[5]", "result": 114, "unit": "%"}, {"measurement": "Activity (%)", "setting": "[6]", "result": 439, "unit": "%"}, {"measurement": "Activity (%)", "setting": "[7]", "result": 496, "unit": "%"}, {"measurement": "Activity (%)", "setting": "[8]", "result": "795% and 722%"}, {"measurement": "Activity (%)", "setting": "[9]", "result": 505, "unit": "%"}, {"measurement": "Activity (%)", "setting": "[10]", "result": 462, "unit": "%"}, {"measurement": "Activity (%)", "setting": "[11]", "result": 355, "unit": "%"}, {"measurement": "Activity (%)", "setting": "[12]", "result": 338, "unit": "%"}, {"measurement": "Activity (%)", "setting": "[13]", "result": 388, "unit": "%"}, {"measurement": "Activity (%)", "setting": "[14]", "result": 184, "unit": "%"}, {"measurement": "Activity (%)", "setting": "[15]", "result": 339, "unit": "%"}, {"measurement": "Activity (%)", "setting": "[16]", "result": 582, "unit": "%"}, {"measurement": "Activity (%)", "setting": "[17]", "result": 342, "unit": "%"}, {"measurement": "Activity (%)", "setting": "[18]", "result": 243, "unit": "%"}, {"measurement": "Activity (%)", "setting": "[19]", "result": 486, "unit": "%"}, {"measurement": "Activity (%)", "setting": "[20]", "result": 580, "unit": "%"}, {"measurement": "Activity (%)", "setting": "[21]", "result": 167, "unit": "%"}, {"measurement": "Activity (%)", "setting": "[22]", "result": 707, "unit": "%"}, {"measurement": "Activity (%)", "setting": "[23]", "result": 557, "unit": "%"}, {"measurement": "Activity (%)", "setting": "[24]", "result": "504% and 380%"}, {"measurement": "Activity (%)", "setting": "[25]", "result": 539, "unit": "%"}, {"measurement": "Activity (%)", "setting": "[26]", "result": 398, "unit": "%"}, {"measurement": "Activity (%)", "setting": "[27]", "result": 310, "unit": "%"}, {"measurement": "Activity (%)", "setting": "[28]", "result": 279, "unit": "%"}, {"measurement": "Activity (%)", "setting": "[29]", "result": 467, "unit": "%"}, {"measurement": "Activity (%)", "setting": "[30]", "result": 275, "unit": "%"}, {"measurement": "Activity (%)", "setting": "[31]", "result": 770, "unit": "%"}, {"measurement": "Activity (%)", "setting": "[32]", "result": 411, "unit": "%"}, {"measurement": "Activity (%)", "setting": "[33]", "result": 322, "unit": "%"}, {"measurement": "Activity (%)", "setting": "[34]", "result": 283, "unit": "%"}, {"measurement": "Activity (%)", "setting": "[35]", "result": 392, "unit": "%"}, {"measurement": "Activity (%)", "setting": "[36]", "result": 653, "unit": "%"}, {"measurement": "Activity (%)", "setting": "[37]", "result": 549, "unit": "%"}, {"measurement": "Activity (%)", "setting": "[38]", "result": 808, "unit": "%"}, {"measurement": "Activity (%)", "setting": "[39]", "result": 362, "unit": "%"}, {"measurement": "Activity (%)", "setting": "[40]", "result": 275, "unit": "%"}, {"measurement": "Activity (%)", "setting": "[41]", "result": 126, "unit": "%"}, {"measurement": "Activity (%)", "setting": "[42]", "result": 475, "unit": "%"}]}]}
